T1: recombinant human B7-H3 His-tag (R&D 1949-B3-050) (Homo sapiens, UniProt Q5ZPR3-2 29-245)
T1 sequence: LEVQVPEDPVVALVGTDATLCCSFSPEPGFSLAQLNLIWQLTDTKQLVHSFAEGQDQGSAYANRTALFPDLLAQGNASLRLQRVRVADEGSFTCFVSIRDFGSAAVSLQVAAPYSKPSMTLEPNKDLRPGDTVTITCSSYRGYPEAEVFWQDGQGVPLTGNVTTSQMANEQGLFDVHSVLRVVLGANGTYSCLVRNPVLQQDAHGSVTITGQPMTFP


The binders below were run against T1, recombinant human B7-H3 His-tag (R&D …) (assay: dot blot; FITC aptamer, 10 ng protein on membrane; ABB: AWB (composition not given) + 0.1 mg/ml yeast tRNA, 0.1 mg/ml salmon sperm DNA, 5% FBS, 1 mg/ml BSA; 60 min; 0-500 nM aptamer; flow binding assay on ice, dot-blot temperature and pH not stated). Conditions: protein: commercial; tags: C-terminal His; label: FITC or biotin.

| Binder | Kd [nM] |
| --- | --- |
| VRF-HS_B7H3-02 (ssDNA) DNA: TAGGGAAGAGAAGGACATATGATCGCCCCTCTTTTCGATTTCAAGCTCCTAACCCACACCTCTTTGACTAGTACATGACCACTT | 24.6 ± 3.69 |
| VRF-HS_B7H3-04 (ssDNA) DNA: TAGGGAAGAGAAGGACATATGATTGCCCCTGACACTTACACGCCACTATCAAGGCACACGCCATTGACTAGTACATGACCACTT | 31.5 ± 4.02 |
| VRF-HS_B7H3-05 (ssDNA) DNA: TAGGGAAGAGAAGGACATATGATTGAGAAGTCACGCCACTTACCTGCGCTCAAAACCTCAGAATTGACTAGTACATGACCACTT | 32.7 ± 4.56 |
| VRF-HS_B7H3-03 (ssDNA) DNA: TAGGGAAGAGAAGGACATATGATATAAGTGACACATCAATCTCATGCGGATGAACCAGTGCGTTTGACTAGTACATGACCACTT | 22.7 ± 3.71 |
| VRF-HS_B7H3-01 (ssDNA) DNA: TAGGGAAGAGAAGGACATATGATACAGCACGGTATGACGAGTCCATTGTGTGTGCAGCTCGCTAATTGACTAGTACATGACCACTT | 19.2 ± 4.4 |

Reference: article PMC11169341, “Development of DNA aptamers targeting B7H3 by hybrid-SELEX: an alternative to antibodies for immuno-assays”
